Test system: Escherichia coli TOP10
Experiment: shrunken log2 fold change of peptide-encoding DNA abundance (4.5 h post-induction vs induction); higher = less antimicrobial activity (less host growth inhibition)
Conditions: time post-induction: 4.5 h; library: site-saturation at positions 5, 18, 19, 20
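Also: peptides expressed intracellularly from a pBAD plasmid library in pooled LB shake-flask culture, induced with 0.3% L-arabinose, DNA abundance read by NGS, three biological replicates, DESeq2 with apeglm shrinkage.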

With RRIRARPPRLPRPRPRPMLHPRP the “shrunken log2 fold change” value was 0.206.

RRIRKRPPRLPRPRPRPFGNPRP was tested, and the “shrunken log2 fold change” value was -0.171.

For RRIRNRPPRLPRPRPRPTNMPRP, the “shrunken log2 fold change” value was -0.753.

RRIRKRPPRLPRPRPRPNEGPRP was tested, and the “shrunken log2 fold change” value was 0.0728.

RRIRNRPPRLPRPRPRPCTSPRP was tested, and the “shrunken log2 fold change” value was -0.0712.

For RRIRSRPPRLPRPRPRPWRWPRP, the “shrunken log2 fold change” value was 0.124.

With RRIRWRPPRLPRPRPRPPIDPRP the “shrunken log2 fold change” value was 0.1.

In the case of RRIRGRPPRLPRPRPRPDIQPRP, the “shrunken log2 fold change” value is reported as 1.9.

With RRIRCRPPRLPRPRPRPTKGPRP the “shrunken log2 fold change” value was -0.0938.

For RRIRMRPPRLPRPRPRPGNTPRP, the “shrunken log2 fold change” value was -0.246.

For RRIRVRPPRLPRPRPRPHFGPRP, the “shrunken log2 fold change” value was -0.0294.

In the case of RRIRWRPPRLPRPRPRPKHTPRP, the “shrunken log2 fold change” value is reported as 0.578.

With RRIRNRPPRLPRPRPRPTSFPRP the “shrunken log2 fold change” value was 0.00362.

In the case of RRIRARPPRLPRPRPRPLSEPRP, the “shrunken log2 fold change” value is reported as 0.172.

For RRIRPRPPRLPRPRPRPRCTPRP, the “shrunken log2 fold change” value was 0.753.

RRIRSRPPRLPRPRPRPEHRPRP was tested, and the “shrunken log2 fold change” value was -0.00155.

With RRIRFRPPRLPRPRPRPCNAPRP the “shrunken log2 fold change” value was -0.23.

RRIRQRPPRLPRPRPRPEGWPRP was tested, and the “shrunken log2 fold change” value was 0.856.

RRIRIRPPRLPRPRPRPLASPRP was tested, and the “shrunken log2 fold change” value was 0.0396.

With RRIRYRPPRLPRPRPRPCPCPRP the “shrunken log2 fold change” value was 0.0185.

In the case of RRIRLRPPRLPRPRPRPIWNPRP, the “shrunken log2 fold change” value is reported as 0.0155.

For RRIRPRPPRLPRPRPRPSLTPRP, the “shrunken log2 fold change” value was -0.22.

For RRIRVRPPRLPRPRPRPFGSPRP, the “shrunken log2 fold change” value was -0.137.

RRIRARPPRLPRPRPRPDVIPRP was tested, and the “shrunken log2 fold change” value was 0.0534.

In the case of RRIRNRPPRLPRPRPRPKHGPRP, the “shrunken log2 fold change” value is reported as 0.0401.

RRIRARPPRLPRPRPRPCETPRP was tested, and the “shrunken log2 fold change” value was 0.00546.

RRIRHRPPRLPRPRPRPKWMPRP was tested, and the “shrunken log2 fold change” value was -0.123.

In the case of RRIRIRPPRLPRPRPRPNSSPRP, the “shrunken log2 fold change” value is reported as -0.369.

For RRIRWRPPRLPRPRPRPGPMPRP, the “shrunken log2 fold change” value was 0.327.

RRIRGRPPRLPRPRPRPRKMPRP was tested, and the “shrunken log2 fold change” value was 0.949.

RRIRVRPPRLPRPRPRPIINPRP was tested, and the “shrunken log2 fold change” value was -0.644.

In the case of RRIRLRPPRLPRPRPRPTRYPRP, the “shrunken log2 fold change” value is reported as 0.0777.

For RRIRRRPPRLPRPRPRPGCFPRP, the “shrunken log2 fold change” value was 0.5.

With RRIRARPPRLPRPRPRPGYEPRP the “shrunken log2 fold change” value was 0.246.

With RRIRFRPPRLPRPRPRPKCMPRP the “shrunken log2 fold change” value was -0.967.

In the case of RRIRMRPPRLPRPRPRPRKYPRP, the “shrunken log2 fold change” value is reported as 0.276.

With RRIRMRPPRLPRPRPRPYINPRP the “shrunken log2 fold change” value was -0.574.

RRIRRRPPRLPRPRPRPWCVPRP was tested, and the “shrunken log2 fold change” value was -0.032.

In the case of RRIRPRPPRLPRPRPRPRACPRP, the “shrunken log2 fold change” value is reported as 0.456.

RRIRARPPRLPRPRPRPHALPRP was tested, and the “shrunken log2 fold change” value was 0.112.

For RRIRSRPPRLPRPRPRPLIDPRP, the “shrunken log2 fold change” value was -0.197.

RRIRCRPPRLPRPRPRPWDIPRP was tested, and the “shrunken log2 fold change” value was -0.179.

For RRIRMRPPRLPRPRPRPIFTPRP, the “shrunken log2 fold change” value was -0.0423.

In the case of RRIRTRPPRLPRPRPRPGAPPRP, the “shrunken log2 fold change” value is reported as 0.479.

With RRIRMRPPRLPRPRPRPEQTPRP the “shrunken log2 fold change” value was 0.057.

With RRIRCRPPRLPRPRPRPGSEPRP the “shrunken log2 fold change” value was 0.286.

RRIRYRPPRLPRPRPRPRFIPRP was tested, and the “shrunken log2 fold change” value was -0.671.

For RRIRPRPPRLPRPRPRPCCYPRP, the “shrunken log2 fold change” value was -0.47.

For RRIRDRPPRLPRPRPRPRHYPRP, the “shrunken log2 fold change” value was 0.0264.

In the case of RRIRARPPRLPRPRPRPIIEPRP, the “shrunken log2 fold change” value is reported as 0.00879.

RRIRYRPPRLPRPRPRPAWSPRP was tested, and the “shrunken log2 fold change” value was -0.292.

With RRIRPRPPRLPRPRPRPYDWPRP the “shrunken log2 fold change” value was 0.0551.

For RRIRRRPPRLPRPRPRPLQFPRP, the “shrunken log2 fold change” value was 0.313.

For RRIRYRPPRLPRPRPRPGPYPRP, the “shrunken log2 fold change” value was -0.771.

In the case of RRIRFRPPRLPRPRPRPRKYPRP, the “shrunken log2 fold change” value is reported as -0.177.

In the case of RRIRVRPPRLPRPRPRPHMTPRP, the “shrunken log2 fold change” value is reported as -0.277.

For RRIRERPPRLPRPRPRPKLVPRP, the “shrunken log2 fold change” value was 0.0398.

RRIRMRPPRLPRPRPRPGAWPRP was tested, and the “shrunken log2 fold change” value was 0.122.

RRIRYRPPRLPRPRPRPVNCPRP was tested, and the “shrunken log2 fold change” value was 0.0039.

RRIRGRPPRLPRPRPRPGIKPRP was tested, and the “shrunken log2 fold change” value was 0.429.

RRIRGRPPRLPRPRPRPYPTPRP was tested, and the “shrunken log2 fold change” value was 0.0422.

In the case of RRIRWRPPRLPRPRPRPAFMPRP, the “shrunken log2 fold change” value is reported as 0.0849.

In the case of RRIRSRPPRLPRPRPRPPWKPRP, the “shrunken log2 fold change” value is reported as -0.0556.

In the case of RRIRERPPRLPRPRPRPNNIPRP, the “shrunken log2 fold change” value is reported as -0.787.

With RRIRRRPPRLPRPRPRPSTEPRP the “shrunken log2 fold change” value was 0.664.

RRIRRRPPRLPRPRPRPMRGPRP was tested, and the “shrunken log2 fold change” value was 1.38.

In the case of RRIRPRPPRLPRPRPRPDQHPRP, the “shrunken log2 fold change” value is reported as -0.0313.

RRIRVRPPRLPRPRPRPPHYPRP was tested, and the “shrunken log2 fold change” value was 0.1.

In the case of RRIRRRPPRLPRPRPRPDDMPRP, the “shrunken log2 fold change” value is reported as -0.039.

For RRIRYRPPRLPRPRPRPYQYPRP, the “shrunken log2 fold change” value was -1.05.

For RRIRTRPPRLPRPRPRPANEPRP, the “shrunken log2 fold change” value was -0.226.

In the case of RRIRWRPPRLPRPRPRPYCAPRP, the “shrunken log2 fold change” value is reported as -0.281.

With RRIRCRPPRLPRPRPRPMDIPRP the “shrunken log2 fold change” value was 0.00412.

For RRIRLRPPRLPRPRPRPYKSPRP, the “shrunken log2 fold change” value was 0.0344.

In the case of RRIRQRPPRLPRPRPRPTRSPRP, the “shrunken log2 fold change” value is reported as 0.164.

RRIRGRPPRLPRPRPRPPFSPRP was tested, and the “shrunken log2 fold change” value was 0.444.

For RRIRVRPPRLPRPRPRPQSGPRP, the “shrunken log2 fold change” value was -0.0607.

With RRIRGRPPRLPRPRPRPTIQPRP the “shrunken log2 fold change” value was 0.54.

For RRIRVRPPRLPRPRPRPNMEPRP, the “shrunken log2 fold change” value was -0.151.

With RRIRHRPPRLPRPRPRPSDPPRP the “shrunken log2 fold change” value was -0.0545.

RRIRMRPPRLPRPRPRPNWHPRP was tested, and the “shrunken log2 fold change” value was -0.0297.

In the case of RRIRYRPPRLPRPRPRPGVDPRP, the “shrunken log2 fold change” value is reported as -0.0308.

With RRIRIRPPRLPRPRPRPGLMPRP the “shrunken log2 fold change” value was -0.0194.

RRIRCRPPRLPRPRPRPPSEPRP was tested, and the “shrunken log2 fold change” value was 0.102.

For RRIRCRPPRLPRPRPRPDQSPRP, the “shrunken log2 fold change” value was 0.112.

In the case of RRIRHRPPRLPRPRPRPIGNPRP, the “shrunken log2 fold change” value is reported as -0.199.

In the case of RRIRGRPPRLPRPRPRPYRLPRP, the “shrunken log2 fold change” value is reported as -0.233.

RRIRNRPPRLPRPRPRPAYFPRP was tested, and the “shrunken log2 fold change” value was -0.175.

With RRIRCRPPRLPRPRPRPTQVPRP the “shrunken log2 fold change” value was 0.0177.

With RRIRWRPPRLPRPRPRPTFKPRP the “shrunken log2 fold change” value was 0.132.

For RRIRVRPPRLPRPRPRPCGGPRP, the “shrunken log2 fold change” value was -0.0341.

In the case of RRIRCRPPRLPRPRPRPTPQPRP, the “shrunken log2 fold change” value is reported as 0.794.

With RRIRCRPPRLPRPRPRPIAYPRP the “shrunken log2 fold change” value was -0.113.

With RRIRIRPPRLPRPRPRPAWKPRP the “shrunken log2 fold change” value was 0.123.

In the case of RRIRLRPPRLPRPRPRPWSLPRP, the “shrunken log2 fold change” value is reported as -0.195.

For RRIRYRPPRLPRPRPRPDADPRP, the “shrunken log2 fold change” value was 0.00911.

For RRIRNRPPRLPRPRPRPSRIPRP, the “shrunken log2 fold change” value was -0.234.

In the case of RRIRRRPPRLPRPRPRPGNQPRP, the “shrunken log2 fold change” value is reported as 0.0401.

In the case of RRIRCRPPRLPRPRPRPSWYPRP, the “shrunken log2 fold change” value is reported as -0.675.

For RRIRERPPRLPRPRPRPYTIPRP, the “shrunken log2 fold change” value was -0.267.

With RRIRCRPPRLPRPRPRPKRIPRP the “shrunken log2 fold change” value was -0.143.

RRIRWRPPRLPRPRPRPHNKPRP was tested, and the “shrunken log2 fold change” value was -0.39.

RRIRWRPPRLPRPRPRPYVEPRP was tested, and the “shrunken log2 fold change” value was -0.446.

For RRIRYRPPRLPRPRPRPNVPPRP, the “shrunken log2 fold change” value was -3.01.

With RRIRDRPPRLPRPRPRPRFGPRP the “shrunken log2 fold change” value was 0.206.

RRIRQRPPRLPRPRPRPNVAPRP was tested, and the “shrunken log2 fold change” value was 0.236.

For RRIRWRPPRLPRPRPRPIDCPRP, the “shrunken log2 fold change” value was 0.0353.

RRIRKRPPRLPRPRPRPYRHPRP was tested, and the “shrunken log2 fold change” value was -1.11.

For RRIRKRPPRLPRPRPRPKMKPRP, the “shrunken log2 fold change” value was 0.444.

For RRIRNRPPRLPRPRPRPHPSPRP, the “shrunken log2 fold change” value was -0.25.

For RRIRSRPPRLPRPRPRPIAKPRP, the “shrunken log2 fold change” value was -0.0775.

In the case of RRIRCRPPRLPRPRPRPGLHPRP, the “shrunken log2 fold change” value is reported as -0.131.

RRIRQRPPRLPRPRPRPVRSPRP was tested, and the “shrunken log2 fold change” value was 0.32.

With RRIRMRPPRLPRPRPRPKEVPRP the “shrunken log2 fold change” value was 0.00253.

RRIRTRPPRLPRPRPRPESHPRP was tested, and the “shrunken log2 fold change” value was -0.164.

In the case of RRIRARPPRLPRPRPRPKSLPRP, the “shrunken log2 fold change” value is reported as -0.109.

With RRIRMRPPRLPRPRPRPYMLPRP the “shrunken log2 fold change” value was -0.0122.

RRIRWRPPRLPRPRPRPYRLPRP was tested, and the “shrunken log2 fold change” value was 0.00724.

With RRIRHRPPRLPRPRPRPHECPRP the “shrunken log2 fold change” value was -0.0277.

RRIRMRPPRLPRPRPRPGSQPRP was tested, and the “shrunken log2 fold change” value was 0.926.

In the case of RRIRNRPPRLPRPRPRPHYHPRP, the “shrunken log2 fold change” value is reported as -0.142.

RRIRVRPPRLPRPRPRPYYHPRP was tested, and the “shrunken log2 fold change” value was -0.877.

For RRIRMRPPRLPRPRPRPSGVPRP, the “shrunken log2 fold change” value was 0.0246.

RRIRARPPRLPRPRPRPEMNPRP was tested, and the “shrunken log2 fold change” value was 0.655.

For RRIRQRPPRLPRPRPRPISKPRP, the “shrunken log2 fold change” value was -0.0725.

From the supplement of paper PMC9112550, “Optimization of the antimicrobial peptide Bac7 by deep mutational scanning” (BMC Biology, 2022)
